From patent EP0925358B1

Target: human CXC Chemokine Receptor 3 (CXCR3) (human) (UniProt P49682)
Assay: cell-based or functional assay

UniProt P49682, sequence (P49682 whole entry, form in doubt): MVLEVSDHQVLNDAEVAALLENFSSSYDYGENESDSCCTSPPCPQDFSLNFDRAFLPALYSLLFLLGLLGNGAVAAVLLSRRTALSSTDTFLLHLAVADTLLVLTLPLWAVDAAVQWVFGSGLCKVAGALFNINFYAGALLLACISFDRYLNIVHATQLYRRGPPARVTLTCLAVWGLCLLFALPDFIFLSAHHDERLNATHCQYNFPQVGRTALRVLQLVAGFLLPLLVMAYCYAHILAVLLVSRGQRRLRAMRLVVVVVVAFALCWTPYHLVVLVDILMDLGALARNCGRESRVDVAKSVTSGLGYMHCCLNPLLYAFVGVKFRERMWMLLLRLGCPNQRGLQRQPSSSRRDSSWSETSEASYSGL

Row | Substance | [Ca2+]i changes in IP-10/MigR transfectants [nM]
1 | ENA78 (epithelial-derived neutrophil-activating peptide 78) (from UniProt P42830 37-114) (ligand) | > 100
2 | GCP-2 (granulocyte chemotactic protein-2) (from UniProt P80162 38-114) (ligand) | > 100
3 | GROα (from UniProt P09341 35-107) (ligand) | > 100
4 | I309 (from UniProt P22362 24-96) (ligand) | > 100
5 | IL-8 (from UniProt P10145 28-99) (ligand) | > 100
6 | MCP-1 (monocyte chemotactic protein-1) (from UniProt P13500 24-99) (ligand) | > 100
7 | MCP-2 (from UniProt P80075 24-99) (ligand) | > 100
8 | MCP-3 (from UniProt P80098 24-99) (ligand) | > 100
9 | MCP-4 (from UniProt Q99616 24-98) (ligand) | > 100
10 | MIP-1α (macrophage inflammatory protein-1α) (from UniProt P10147 24-92) (ligand) | > 100
11 | MIP-1β (from UniProt P13236 24-92) (ligand) | > 100
12 | NAP-2 (neutrophil-activating protein-2) (from UniProt P02775 59-128) (ligand) | > 100
13 | PF4 (platelet factor 4) (from UniProt P02776 32-101) (ligand) | > 100
14 | RANTES (regulated on activation, normal T cell expressed and secreted) (from UniProt P13501 24-91) (ligand) | > 100
15 | eotaxin (from UniProt P51671 24-97) (ligand) | > 100
16 | lymphotactin (from UniProt P47992 22-114) (ligand) | > 100
